Numbered stars: 1 amine (or outer) side, 2 acyl side, 3 side chain; on linkers, the order of the positions; unused ones are H or OH. Square brackets hold non-standard residues; d marks the D form. Ends that are not written are not given here. * marks the point of attachment. DAMP‑2 = His whose imidazole is a 1,3-bis(2-cyclohexylethyl)-2,3-dihydro-1H-imidazol-4-yl group, O=C([C@H](CC1=CN(CCC2CCCCC2)CN1CCC1CCCCC1)N[*:1])[*:2]; tbm = (2'-(1H-tetrazol-5-yl)-[1,1'-biphenyl]-4-yl)methyl on the histidine imidazole nitrogen, c1ccc(-c2nn[nH]n2)c(-c2ccc(C*)cc2)c1; 1,3‑difluorobenzhydryl = His with a 1-((2,4-difluorophenyl)(phenyl)methyl) group on the imidazole (N1); DAMP‑5 = His whose imidazole is a 3-(2-cyclohexylethyl)-2,3-dihydro-1H-imidazol-4-yl group; 4‑methoxylbenzhydryl = COc1ccc(C(c2ccccc2)*)cc1; Biotin = O=C1N[C@H]2[C@H](CS[C@H]2CCCCC(=O)*)N1; dPhe(4-CF3) = N[C@H](Cc1ccc(C(F)(F)F)cc1)C(=O)O; 4‑chlorobenzhydryl = Clc1ccc(C(c2ccccc2)*)cc1; Fm = 9H-fluoren-9-yl, c1ccc2c(c1)-c1ccccc1C2*; dPhe(4-Br) = N[C@H](Cc1ccc(Br)cc1)C(=O)O; dPhe(4-Cl) = N[C@H](Cc1ccc(Cl)cc1)C(=O)O; dPhe(4-Me) = Cc1ccc(C[C@@H](N)C(=O)O)cc1; Trt = c1ccc(C(c2ccccc2)(c2ccccc2)*)cc1; dPhe(4-F) = N[C@H](Cc1ccc(F)cc1)C(=O)O; CH2(1-naphthyl) = c1ccc2c(C*)cccc2c1; Dmt = Cc1cc(O)cc(C)c1C[C@H](N)C(=O)O; Benzhydryl = c1ccc(C(c2ccccc2)*)cc1; 2‑cyclohexylethyl = C1CCC(CC*)CC1; Palmitoyl = CCCCCCCCCCCCCCCC(=O)*; Myristoyl = CCCCCCCCCCCCCC(=O)*; Lauroyl = CCCCCCCCCCCC(=O)*; Tos = Cc1ccc(S(=O)(=O)*)cc1; Decanoyl = CCCCCCCCCC(=O)*; Octanoyl = CCCCCCCC(=O)*; SO3H = O=S(=O)(O)*; Bn = c1ccc(C*)cc1
Target: T1, GPR39 (G protein-coupled receptor 39) (Homo sapiens (Human), UniProt O43194 1-453)
T1 sequence: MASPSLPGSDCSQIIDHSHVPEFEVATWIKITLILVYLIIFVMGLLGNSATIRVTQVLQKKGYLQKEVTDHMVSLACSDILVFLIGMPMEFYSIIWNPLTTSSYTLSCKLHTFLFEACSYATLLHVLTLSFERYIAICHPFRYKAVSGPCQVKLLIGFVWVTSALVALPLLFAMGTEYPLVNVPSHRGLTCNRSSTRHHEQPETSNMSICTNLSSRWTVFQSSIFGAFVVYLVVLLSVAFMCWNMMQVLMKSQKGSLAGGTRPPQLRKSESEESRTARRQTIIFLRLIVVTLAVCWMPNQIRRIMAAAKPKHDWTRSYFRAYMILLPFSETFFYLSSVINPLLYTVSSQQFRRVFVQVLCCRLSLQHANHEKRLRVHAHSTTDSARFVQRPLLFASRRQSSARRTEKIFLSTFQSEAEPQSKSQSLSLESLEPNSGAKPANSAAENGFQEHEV
Assay: cell-based or functional assay

B1: HKFY-70 (peptide)
peptide: H(Benzhydryl)K(Octanoyl)[dPhe(4-Me)][Tyr(3-amino)]
- EC50 (luciferase reporter): 0.02 µM
- ECmax (-fold induction over basal): 10.1 -fold induction over basal

B2: HKFY-66 (peptide)
peptide: H(Benzhydryl)K(Octanoyl)[dPhe(4-Me)]Y-NH2
- EC50 (luciferase reporter): 0.011 µM
- ECmax (-fold induction over basal): 20.2 -fold induction over basal

B3: HKFY-33 (peptide)
peptide: H(Benzhydryl)K(Octanoyl)FY
- EC50 (luciferase reporter): 0.15 µM
- ECmax (-fold induction over basal): 20 -fold induction over basal

B4: HKFY-12 (peptide)
peptide: H(Trt)K(Octanoyl)[dF]Y
- EC50 (luciferase reporter): 0.035 µM
- ECmax (-fold induction over basal): 20.7 -fold induction over basal

B5: HKFY-30 (peptide)
peptide: H(Trt)K(Octanoyl)[dPhe(4-Me)]Y
- EC50 (luciferase reporter): 0.008 µM
- ECmax (-fold induction over basal): 23.9 -fold induction over basal

B6: HKFY-29 (peptide)
peptide: H(Trt)K(Octanoyl)[dPhe(4-Br)]Y
- EC50 (luciferase reporter): 0.31 µM
- ECmax (-fold induction over basal): 26.8 -fold induction over basal

B7: HKFY-19 (peptide)
peptide: H(phenethyl)K(Octanoyl)FY
- EC50 (luciferase reporter): 24.6 µM
- ECmax (-fold induction over basal): 18 -fold induction over basal

B8: HKFY-26 (peptide)
peptide: H(Trt)K(Myristoyl)FY
- EC50 (luciferase reporter): 0.28 µM
- ECmax (-fold induction over basal): 19.8 -fold induction over basal

B9: HKFY-10 (peptide)
peptide: H(CH2(1-naphthyl))K(Octanoyl)FY
- EC50 (luciferase reporter): 46.5 µM
- ECmax (-fold induction over basal): 14 -fold induction over basal

B10: HKFY-69 (peptide)
peptide: H(Benzhydryl)K(Octanoyl)[dPhe(4-Me)][Tyr(3,5-nitro)]
- EC50 (luciferase reporter): 0.015 µM
- ECmax (-fold induction over basal): 12.2 -fold induction over basal

B11: HKFY-20 (peptide)
peptide: H(4‑methoxylbenzhydryl)K(Octanoyl)FY
- EC50 (luciferase reporter): 159 µM
- ECmax (-fold induction over basal): 20.3 -fold induction over basal

B12: HKFY-76 (peptide)
peptide: H(Trt)K(Octanoyl)[dPhe(4-CF3)]Y
- EC50 (luciferase reporter): 0.007 µM
- ECmax (-fold induction over basal): 14.2 -fold induction over basal

B13: HKFY-25 (peptide)
peptide: H(Trt)K(Lauroyl)FY
- EC50 (luciferase reporter): 0.63 µM
- ECmax (-fold induction over basal): 7.72 -fold induction over basal

B14: HKFY-68 (peptide)
peptide: H(Benzhydryl)K(Octanoyl)[dPhe(4-Me)][Tyr(3-nitro)]
- EC50 (luciferase reporter): 0.013 µM
- ECmax (-fold induction over basal): 10.8 -fold induction over basal

B15: HKFY-22 (peptide)
peptide: H(4‑methylbenzhydryl)K(Octanoyl)FY
- EC50 (luciferase reporter): 59.8 µM
- ECmax (-fold induction over basal): 21.3 -fold induction over basal

B16: HKFY-28 (peptide)
peptide: H(Trt)K(Octanoyl)[dPhe(4-F)]Y
- EC50 (luciferase reporter): 0.074 µM
- ECmax (-fold induction over basal): 22.9 -fold induction over basal

B17: HKFY-15 (peptide)
peptide: H(Trt)K(Octanoyl)[dPhe(4-Cl)][dY]
- EC50 (luciferase reporter): 0.098 µM
- ECmax (-fold induction over basal): 24.7 -fold induction over basal

B18: HKFY-38 (peptide)
peptide: H(Trt)K(Octanoyl)FYSDQQARF
modifications: not fully specified; printed as His(trt)-Lys(caprylic)-Phe-Tyr-Ser-Asp-Gln-Gln-Ala-Arg-Phe
- EC50 (luciferase reporter): 3.5 µM
- ECmax (-fold induction over basal): 16.5 -fold induction over basal

B19: HKFY-27 (peptide)
peptide: H(Trt)K(Palmitoyl)FY
- EC50 (luciferase reporter): 0.56 µM
- ECmax (-fold induction over basal): 20.4 -fold induction over basal

B20: HKFY-18 (peptide)
peptide: H(Fm)K(Octanoyl)FY
- EC50 (luciferase reporter): 2.29 µM
- ECmax (-fold induction over basal): 10 -fold induction over basal

B21: HKFY-32 (peptide)
peptide: H(1,3‑difluorobenzhydryl)K(Octanoyl)[dPhe(4-Me)]Y
- EC50 (luciferase reporter): 0.002 µM
- ECmax (-fold induction over basal): 21.5 -fold induction over basal

B22: HKFY-2 (peptide)
peptide: Biotin-H(Trt)K(Octanoyl)FY
- EC50 (luciferase reporter): 0.14 µM
- ECmax (-fold induction over basal): 15 -fold induction over basal

B23: HKFY-31 (peptide)
peptide: [dH](Trt)K(Octanoyl)[dPhe(4-Me)]Y
- EC50 (luciferase reporter): 0.02 µM
- ECmax (-fold induction over basal): 20.9 -fold induction over basal

B24: HKFY-14 (peptide)
peptide: [dH](Trt)K(Octanoyl)[dPhe(4-Cl)][dY]
- EC50 (luciferase reporter): 0.02 µM
- ECmax (-fold induction over basal): 20.9 -fold induction over basal

B25: HKFY-3 (peptide)
peptide: H(Bn)K(Octanoyl)FY
- EC50 (luciferase reporter): 4.13 µM
- ECmax (-fold induction over basal): 9.2 -fold induction over basal

B26: HKFY-13 (peptide)
peptide: H(Trt)K(Octanoyl)[dPhe(4-Cl)]Y
- EC50 (luciferase reporter): 0.014 µM
- ECmax (-fold induction over basal): 25.7 -fold induction over basal

B27: HKFY-4 (peptide)
peptide: [dH](Trt)K(Octanoyl)FY
- EC50 (luciferase reporter): 0.13 µM
- ECmax (-fold induction over basal): 16.8 -fold induction over basal

B28: HKFY-75 (peptide)
peptide: H(Tos)K(Octanoyl)[dPhe(4-Me)]Y
- EC50 (luciferase reporter): 0.001 µM
- ECmax (-fold induction over basal): 15.9 -fold induction over basal

B29: HKFY-24 (peptide)
peptide: H(Trt)K(Decanoyl)FY
- EC50 (luciferase reporter): 0.24 µM
- ECmax (-fold induction over basal): 7.03 -fold induction over basal

B30: HKFY-16 (peptide)
peptide: H(Trt)[dK](Octanoyl)[dPhe(4-Cl)]Y
- EC50 (luciferase reporter): 0.24 µM
- ECmax (-fold induction over basal): 27.9 -fold induction over basal

B31: HKFY-72 (peptide)
peptide: Biotin-H(Benzhydryl)K(Octanoyl)[dPhe(4-Me)]Y
- EC50 (luciferase reporter): 0.011 µM
- ECmax (-fold induction over basal): 10.4 -fold induction over basal

B32: HKFY-8 (peptide)
peptide: H(DAMP‑2)K(Octanoyl)FY
- EC50 (luciferase reporter): 33.6 µM
- ECmax (-fold induction over basal): 17.3 -fold induction over basal

B33: HKFY-11 (peptide)
peptide: H(2‑cyclohexylethyl)K(Octanoyl)FY
- EC50 (luciferase reporter): 57.8 µM
- ECmax (-fold induction over basal): 22 -fold induction over basal

B34: HKFY-9 (peptide)
peptide: HK(Octanoyl)FY
modifications: not fully specified (residue 1)
- EC50 (luciferase reporter): 42.7 µM
- ECmax (-fold induction over basal): 21 -fold induction over basal

B35: HKFY-36 (peptide)
peptide: H(Benzhydryl)K(Octanoyl)[dPhe(4-Me)][Dmt]
- EC50 (luciferase reporter): 0.15 µM
- ECmax (-fold induction over basal): 9.9 -fold induction over basal

B36: HKFY-37 (peptide)
peptide: GSH(Trt)K(Octanoyl)FY
- EC50 (luciferase reporter): 1.84 µM
- ECmax (-fold induction over basal): 16 -fold induction over basal

B37: HKFY-17 (peptide)
peptide: H(3,3‑diphenylethyl)K(Octanoyl)FY
- EC50 (luciferase reporter): 8.12 µM
- ECmax (-fold induction over basal): 20 -fold induction over basal

B38: HKFY-67 (peptide)
peptide: H(Benzhydryl)K(Octanoyl)[dPhe(4-Me)][Tyr(3-chloro)]
- EC50 (luciferase reporter): 0.043 µM
- ECmax (-fold induction over basal): 10.2 -fold induction over basal

B39: HKFY-77 (peptide)
peptide: H(tbm)K(Octanoyl)FY
modifications: not fully specified (residue 3); printed as His(tbm)-Lys(caprylic)-d-Phe(4-CF3)-Tyr
- EC50 (luciferase reporter): 0.007 µM
- ECmax (-fold induction over basal): 11.6 -fold induction over basal

B40: HKFY-79 (peptide)
peptide: His(Benzhydryl)-Lys(Octanoyl)
- EC50 (luciferase reporter): 0.97 µM
- ECmax (-fold induction over basal): 11.2 -fold induction over basal

B41: HKFY-7 (peptide)
peptide: H(DAMP‑5)K(Octanoyl)FY
- EC50 (luciferase reporter): 1.56 µM
- ECmax (-fold induction over basal): 16 -fold induction over basal

B42: HKFY-21 (peptide)
peptide: H(4‑chlorobenzhydryl)K(Octanoyl)FY
modifications: not fully specified
- EC50 (luciferase reporter): 136 µM
- ECmax (-fold induction over basal): 18.3 -fold induction over basal

B43: HKFY-23 (peptide)
peptide: H(adamantan‑1‑yl)K(Octanoyl)FY
- EC50 (luciferase reporter): 2.6 µM
- ECmax (-fold induction over basal): 15 -fold induction over basal

B44: HKFY-35 (peptide)
peptide: H(Benzhydryl)K(Octanoyl)[dPhe(4-Me)]Y(SO3H)
- EC50 (luciferase reporter): 0.28 µM
- ECmax (-fold induction over basal): 18.9 -fold induction over basal

Reference: patent US20230212222A1 (ANYGEN CO., LTD., priority 2020, published 2023)
